According to the supplement of paper PMC10724198:
± gives the standard deviation of the averaged measurements.

Test system: Saccharomyces cerevisiae
Experiment: protein stability index of tFT-peptide fusion (C-terminal peptide) (PSI (0-1 scale)); higher = more stable (slower turnover)
Conditions: genetic background: wild type; temperature: 30 C
Description: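 Multiplexed protein stability (MPS) profiling in S. cerevisiae. Random 12-aa peptides (tFT-X12 library) are fused to the C-terminus of a sfGFP-mCherry tandem fluorescent timer, after mCherry and a GGGS linker. Cells are FACS-sorted into 8 mCherry/sfGFP bins and deep-sequenced. The protein stability index (PSI) is the read-weighted bin average, scaled from 0 (unstable) to 1 (stable). Only peptides with >10 reads are reported; cells were grown at 30 °C in SC-His with glucose.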
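Note: PSI is a weighted mean of sequencing reads over stability bins, variants kept only with over 10 reads, mCherry proximal and sfGFP distal, peptide attached via GGGS linker.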

Sequence	protein stability index
IHRLPPSLFPLL	0.776 ± 0.12
NSVPSPSRSLPP	0.666 ± 0.081
HPSFPPHRSPAS	0.78 ± 0.023
PPSPTPPALPAP	0.688 ± 0.018
NQEIGLRNQGRV	0.69 ± 0.033
VLSAPPGLLSYT	0.623 ± 0.053
FPDTRSLPLPPG	0.687 ± 0.011
GSGRGRETYIAK	0.67947 ± 0.0002
LAARHLNFPPIL	0.711 ± 0.009
GPPPPPPPRPPP	0.634 ± 0.007
KKKKKQKKKKGT	0.713 ± 0.034
RFVRGEFLWGVC	0.663 ± 0.044
NSVHVRGRFITK	0.678 ± 0.023
PLSLPPRPFLHH	0.735 ± 0.017
HAPPPPDASPPL	0.677 ± 0.051
KDIVSEPKVKRE	0.744 ± 0.012
PPPRPDLTVGQP	0.654 ± 0.04
GPNRCPGRPVTP	0.703 ± 0.032
GSSAVGWGGVWW	0.796 ± 0.11
LCVLFVSKPTPE	0.67 ± 0.019
VSPSPLDHPFHV	0.684 ± 0.021
GVSCIAEGRGGW	0.7143 ± 0.00091
SRRVSVSTSWNP	0.718 ± 0.014
GGRGSAWRWRRG	0.674 ± 0.014
PPPLLPFPPIPR	0.697 ± 0.033

Sequence	protein stability index
PPTIPLRTLPTS	0.703 ± 0.018
KQRTMNKVSKEK	0.683 ± 0.045
IVSISCPADWLD	0.754 ± 0.034
IAVSWIRGGRIM	0.849 ± 0.13
PPPRLTVPIPSS	0.6477 ± 0.0054
YSLIPLSSISQH	0.685 ± 0.074
PLSLPPPPPSLP	0.723 ± 0.022
PRLAPLTLLPPS	0.7051 ± 0.0027
VVDGWVAAWGVW	0.694 ± 0.003
WTLSDTRHVLPV	0.6683 ± 0.00084
HATPPAPHSVSS	0.774 ± 0.036
GGLVWEESAGVR	0.7091 ± 0.0016
KKLNTYISQIEQ	0.707 ± 0.0079
RFRYFSPLSTTS	0.671 ± 0.027
GAVSVVFGWTDV	0.672 ± 0.021
KKKKKKKNTKTK	0.644 ± 0.0076
SFFTLDRHPSYD	0.715 ± 0.023
GVLGGGVFGGSV	0.631 ± 0.077
RNKKDIKIQIKR	0.68 ± 0.049
FCAVRYLVEGRV	0.533 ± 0.0064
ARVAFARLPNVC	0.66 ± 0.016
HVLCRAFLFLLP	0.642 ± 0.016
PSRPPPARSSPP	0.652 ± 0.0069
WLVRRVSSGQFG	0.653 ± 0.062
WYHALTLASWLS	0.577 ± 0.021

Sequence	protein stability index
TKKSKRKREQAE	0.68 ± 0.026
SPGPSPPSPIGP	0.61967 ± 0.00044
SPPPPSPRFPSP	0.678 ± 0.017
FFPPLLSFPPTD	0.7189 ± 0.0044
CFLERLAFPGLY	0.633 ± 0.011
VRPEPSTGARGA	0.669 ± 0.049
TFLGEAGSVGVT	0.646 ± 0.03
LYSAHLAPGNAD	0.656 ± 0.039
RYEQRKNRRQKL	0.799 ± 0.017
CDSRLSGVFKFG	0.6816 ± 0.0026
PLPCPRGHDHPA	0.688 ± 0.068
RIKHKNRNKKKN	0.791 ± 0.033
PGNAEQGIAVHL	0.626 ± 0.055
KSEGKKHIDKKR	0.63 ± 0.034
AGVVCGGGWWWA	0.772 ± 0.12
NISIFGSRLRVV	0.533 ± 0.034
APVLSVSFFSFL	0.718 ± 0.013
PEGPHTRTVVPA	0.66 ± 0.0088
LLSVFPLHPGSP	0.73 ± 0.047
KKKKQKIRKVKK	0.725 ± 0.084
KSKGVRITKVSN	0.783 ± 0.02
RCGRSVSCLATG	0.696 ± 0.042
WPVPPASYPALS	0.728 ± 0.14
PPAPPEPRIVRR	0.684 ± 0.076
SCPSRLFLSFRG	0.683 ± 0.034

Sequence	protein stability index
RSALVPPRLPAS	0.675 ± 0.075
KGICALKIATGK	0.603 ± 0.032
RTSRKKMLNFKY	0.66688 ± 0.00034
HNFYKLNLDHLK	0.649 ± 0.061
VLRDLGVSLSRA	0.785 ± 0.025
SSLMGGLSAYPG	0.694 ± 0.011
VPGWRVGGARSV	0.746 ± 0.048
CPPRPCTASIVR	0.632 ± 0.036
EEWGSLEWTAGR	0.778 ± 0.019
RGGVGGSVSFWW	0.707 ± 0.072
KRRKKKSKERER	0.672 ± 0.015
LPARSLPPPRPP	0.653 ± 0.0089
PLSPSFPPLSPP	0.78 ± 0.12
TPLPPSALPLPL	0.724 ± 0.066
MPRRLSLNLDYL	0.6563 ± 0.0064
SGGRPVQSWCAW	0.779 ± 0.29
FDVYIKVRGGDI	0.64 ± 0.024
PPSPLLVTLPPA	0.704 ± 0.022
KGQGPAKTRTRE	0.723 ± 0.031
FLPHPSPDPLPP	0.588 ± 0.12
VCGFRVGGYIGV	0.723 ± 0.064
NRYKIKKKIERR	0.6 ± 0.039
VLLGCRRAWVGF	0.669 ± 0.018
PSRPPRLPPASF	0.681 ± 0.046
PFPSTIQSYSYS	0.738 ± 0.07

Sequence	protein stability index
PPSLPRFTPRPA	0.718 ± 0.036
GGCGGGGGVVVR	0.7029 ± 0.0021
PPYRVVLPLFVP	0.508 ± 0.033
LRKGGGVGVWRG	0.687 ± 0.012
LRLLCRTRCYRS	0.666 ± 0.019
FLHPPPSALVLP	0.726 ± 0.03
GDYGRLINLVTR	0.6815 ± 0.0059
GCEGGWLGEGIG	0.593 ± 0.014
GIQSGGGGGKGG	0.668 ± 0.015
GGCEGIRAVGWV	0.716 ± 0.04
SRAPRDVFSPPM	0.72 ± 0.019
PHPDPDHCHAPP	0.713 ± 0.1
LGVGGGGRGVRG	0.728 ± 0.12
PRRPATTSIPTT	0.672 ± 0.038
RTSYIKNQKKKG	0.699 ± 0.013
PPPSPSSPPLSL	0.717 ± 0.099
TFSPRLRPPPPP	0.7078 ± 0.0041
CPGTSRADFSAV	0.681 ± 0.044
LHTSTRPLPPTS	0.675 ± 0.067
NTSVSGTGVSSK	0.762 ± 0.12
PHYRYLHPSPPP	0.704 ± 0.0073
PRPAPLPAPPPS	0.679 ± 0.029
GGTGRVGEMGGR	0.755 ± 0.034
PPPLPSPPAFRP	0.635 ± 0.045
PPGAPPYPSPPP	0.569 ± 0.092

Sequence	protein stability index
IGRVFGMENIKM	0.669 ± 0.014
PSPCRPPHTSAG	0.646 ± 0.048
DAPEKQDKHINE	0.719 ± 0.088
PGDPRARPRLCP	0.71 ± 0.033
PSLRPPPLPPLS	0.7214 ± 0.0025
LLNLLLFLLPPS	0.636 ± 0.031
RGPLNPNWPPTD	0.7 ± 0.037
PVPPRSPPRLPF	0.6673 ± 0.002
RYLLPYQRRLFL	0.745 ± 0.26
PVSFPFPISSLS	0.701 ± 0.062
SRFAAGSRVLFL	0.758 ± 0.044
TDSRPKVGKRGN	0.6583 ± 0.0025
SIFVNICRRMKC	0.616 ± 0.014
APPPPSLPVPST	0.739 ± 0.015
KKKKKQRNQKAK	0.612 ± 0.032
PPLRFLSVSSSP	0.6741 ± 0.003
NMRQGPLAGLAG	0.748 ± 0.072
YSPSCPRTSPLL	0.726 ± 0.046
PPRASQSLLAVP	0.6555 ± 0.0035
GKTRKGKKRKRK	0.666 ± 0.14
DVVGRGRGPVRL	0.802 ± 0.033
KHDIEYRTQIKK	0.662 ± 0.033
AISAGRTFVEVV	0.657 ± 0.067
DRPDLVLAGVCG	0.756 ± 0.06
GGCNLLGRGPDF	0.694 ± 0.024

Sequence	protein stability index
LVFPRCAFGFCF	0.6791 ± 0.0047
PPPALEPSPKEL	0.781 ± 0.057
PPPLPRRPASPL	0.652 ± 0.014
DERREADLYPGE	0.648 ± 0.059
PPPPPSLACPPP	0.688 ± 0.037
SWKFAFWCFLGR	0.5675 ± 0.0056
RRPFPSSVVFPH	0.702 ± 0.023
ITKELHEGEYLY	0.727 ± 0.0086
PLPPPPTLSCTQ	0.701 ± 0.11
YGSYVVNSLYLS	0.616 ± 0.0097
TPRAALVVSPLV	0.7484 ± 0.0018
LPPTAPAPPSPP	0.716 ± 0.086
SPRVRVYLTDTG	0.7306 ± 0.0042
GERKRQQRKREE	0.707 ± 0.064
GGLGVYQWVDSV	0.663 ± 0.02
RVGLCGSSLGVI	0.742 ± 0.078
YVVWGGVQGSVL	0.747 ± 0.046
PLPPPSASPLPP	0.539 ± 0.044
RLCFAPRVLPTH	0.604 ± 0.041
YTSTPTLYTRLW	0.689 ± 0.014
GVFVVEWSGGEG	0.586 ± 0.064
RRKEEEGKEVRK	0.666 ± 0.01
SLPHSFIYYPLP	0.755 ± 0.037
AGGSGGEAGSEG	0.655 ± 0.043
HWTLRRGTGIEL	0.6693 ± 0.0061

Sequence	protein stability index
GIGCMVYKGGFQ	0.6977 ± 0.0011
KKKKKIPKKAKR	0.666 ± 0.049
RRIVAPYSGEAA	0.774 ± 0.013
PPRSLPPSPPSP	0.7384 ± 0.0047
APSQGPSRPGVV	0.708 ± 0.038
GGARGDEGGGSA	0.761 ± 0.055
CLLLVLCKFGLL	0.556 ± 0.023
GGHAAMGRRGRE	0.73 ± 0.14
VCCSQWPLGFSV	0.733 ± 0.068
WGRQSERILRST	0.606 ± 0.046
ANECYAEDREIR	0.69 ± 0.027
SSPEYIRNIQRS	0.62 ± 0.029
ERRPYVAGRRRF	0.6722 ± 0.0049
DLVNTVCTVLDN	0.6836 ± 0.0039
SNPLRPHLPPHF	0.714 ± 0.054
PSGPPPSLFPSA	0.661 ± 0.052
SVSDPLPPRQTV	0.721 ± 0.057
RRRLLCVCDLMM	0.576 ± 0.038
GGLSGSRCTLFW	0.7342 ± 0.0069
VLSGLPPGFTLV	0.644 ± 0.012
PPPRPPSPPSFL	0.734 ± 0.041
